Laboratory results: patent publication US12552866B2, “Internalizing binding molecules targeting receptors involved in cell proliferation or in cell differentiation” (LinXis B.V., priority 2019, dated 2026)
Entries after “also recorded” stand apart in the source; their conditions may differ. Each block holds one molecule with its values, some of them ahead of it.

Assays:
hIGF2R-ECD [1] = biological target: T1, hIGF2R-ECD (Homo sapiens, UniProt P11717); assay: Binding assay / titration ELISA on recombinant hIGF2R-ECD; settings: construct conjugated to Alexa Fluor 647, direct read out; KD+SEM, n=2; read-out: calculated affinity (KD)
T1 construct: recombinant human extracellular domain of IGF2R (hIGF2R-ECD)
Protocol: The 15 unique hIGF2R binders (Example 1.1, FIG. 2) were produced and purified as described in examples 2 and 3. The apparent affinities were determined with binding assays on hIGF2R-ECD. Briefly, three-fold serial VHH dilutions, starting from 1 μM, were added onto hIGF2R-ECD coated plates. After 2 hours of incubation, plates were washed and bound VHH was detected using a VHH-specific IgG antibody, followed by an IRD800CW-conjugated IgG-specific antibody. […] VHH 13F11 was also produced with a C-terminal free cysteine and conjugated using maleimide chemistry to Alexa Fluor 647 (13F11-A647 in FIG. 8A, conjugation method as described in example 9.2). A titration ELISA (direct read out at 647 nm) with this construct was carried out on hIGF2R-ECD to determine whether the affinity was affected after site directed conjugation (FIG. 8B). The KD and Bmax were calculated in Graphpad (version 8.3), using one-site specific binding analysis (FIG. 8C).
Based on their high affinity and binding to non-overlapping receptor epitopes, VHHs 13F11 and 13E8 were selected for the design of biparatopic and bivalent VHH constructs. Two VHHs were fused with a flexible linker, consisting of three Gly-Gly-Gly-Gly-Ser repeats (FIG. 8A). The sequences were codon optimized for expression in E. coli and obtained as synthesized DNA fragments from GeneArt. The DNA fragments encoding VHHs were cloned into a vector pET28-based vector introducing a C-terminal free cysteine for site-directed conjugation and His6 tag for IMAC purification (FIG. 8A). The constructs were produced and purified as described in example 3. The constructs were conjugated to Alexa Fluor 647 (conjugation method as described in example 9.2) and titration ELISAs on recombinant hIGF2R-ECD (as described in example 4.1) were performed to determine the KD and Bmax (calculated in Graphpad (version 8.3), using one-site specific binding analysis) (FIG. 8C).
Next, 13F11-13E8 was genetically re-engineered to include an in vivo half-life extender in the form of an albumin binding domain (ABD) as described by Johansson et al (Structure, specificity, and mode of interaction for bacterial albumin-binding modules, J. Biol. Chem. 2002 (277): 8114-8120) and subsequently produced and purified as described in Example 3. Subsequently, 13F11-13E8-ABD was conjugated to IRDye800CW (F11E8-ABD-IRD800, conjugation method as described in example 9.2) and the binding affinities of the biparatopic VHH as well as the ABD unit was determined. […] The binding affinity (KD) of F11-E8-ABD-IRD800 to rat serum albumin (RSA) was 30 nM and to mouse serum albumin (MSA) and human serum albumin (HSA) the binding affinity was approximately 200 nM.

[2] = In vivo pharmacokinetics in healthy Sprague-Dawley rats (serum ELISA); design: species or system rat
Protocol: The in vivo pharmacokinetic properties of 13F11-13E8-ABD was compared to 13F11-13E8 without the ABD moiety in healthy Sprague-Dawley rats. In brief, rats were dosed intravenously with approximately 3 mg/kg body weight and blood samples were taken at different time points and the concentration of the VHH constructs were determined using an ELISA on immobilized hIGF2R-ECD.

IGF2R = biological target: T2, IGF2R (Rattus norvegicus, UniProt G3V824); assay: Immunofluorescence staining of tissue cryo-sections of BDL and SHAM rats
T2 construct: from tissue; host or cells: cryo-sections of liver and other tissues, and liver in vivo, of Sprague-Dawley BDL and SHAM rats
T2 sequence (G3V824 36-2481): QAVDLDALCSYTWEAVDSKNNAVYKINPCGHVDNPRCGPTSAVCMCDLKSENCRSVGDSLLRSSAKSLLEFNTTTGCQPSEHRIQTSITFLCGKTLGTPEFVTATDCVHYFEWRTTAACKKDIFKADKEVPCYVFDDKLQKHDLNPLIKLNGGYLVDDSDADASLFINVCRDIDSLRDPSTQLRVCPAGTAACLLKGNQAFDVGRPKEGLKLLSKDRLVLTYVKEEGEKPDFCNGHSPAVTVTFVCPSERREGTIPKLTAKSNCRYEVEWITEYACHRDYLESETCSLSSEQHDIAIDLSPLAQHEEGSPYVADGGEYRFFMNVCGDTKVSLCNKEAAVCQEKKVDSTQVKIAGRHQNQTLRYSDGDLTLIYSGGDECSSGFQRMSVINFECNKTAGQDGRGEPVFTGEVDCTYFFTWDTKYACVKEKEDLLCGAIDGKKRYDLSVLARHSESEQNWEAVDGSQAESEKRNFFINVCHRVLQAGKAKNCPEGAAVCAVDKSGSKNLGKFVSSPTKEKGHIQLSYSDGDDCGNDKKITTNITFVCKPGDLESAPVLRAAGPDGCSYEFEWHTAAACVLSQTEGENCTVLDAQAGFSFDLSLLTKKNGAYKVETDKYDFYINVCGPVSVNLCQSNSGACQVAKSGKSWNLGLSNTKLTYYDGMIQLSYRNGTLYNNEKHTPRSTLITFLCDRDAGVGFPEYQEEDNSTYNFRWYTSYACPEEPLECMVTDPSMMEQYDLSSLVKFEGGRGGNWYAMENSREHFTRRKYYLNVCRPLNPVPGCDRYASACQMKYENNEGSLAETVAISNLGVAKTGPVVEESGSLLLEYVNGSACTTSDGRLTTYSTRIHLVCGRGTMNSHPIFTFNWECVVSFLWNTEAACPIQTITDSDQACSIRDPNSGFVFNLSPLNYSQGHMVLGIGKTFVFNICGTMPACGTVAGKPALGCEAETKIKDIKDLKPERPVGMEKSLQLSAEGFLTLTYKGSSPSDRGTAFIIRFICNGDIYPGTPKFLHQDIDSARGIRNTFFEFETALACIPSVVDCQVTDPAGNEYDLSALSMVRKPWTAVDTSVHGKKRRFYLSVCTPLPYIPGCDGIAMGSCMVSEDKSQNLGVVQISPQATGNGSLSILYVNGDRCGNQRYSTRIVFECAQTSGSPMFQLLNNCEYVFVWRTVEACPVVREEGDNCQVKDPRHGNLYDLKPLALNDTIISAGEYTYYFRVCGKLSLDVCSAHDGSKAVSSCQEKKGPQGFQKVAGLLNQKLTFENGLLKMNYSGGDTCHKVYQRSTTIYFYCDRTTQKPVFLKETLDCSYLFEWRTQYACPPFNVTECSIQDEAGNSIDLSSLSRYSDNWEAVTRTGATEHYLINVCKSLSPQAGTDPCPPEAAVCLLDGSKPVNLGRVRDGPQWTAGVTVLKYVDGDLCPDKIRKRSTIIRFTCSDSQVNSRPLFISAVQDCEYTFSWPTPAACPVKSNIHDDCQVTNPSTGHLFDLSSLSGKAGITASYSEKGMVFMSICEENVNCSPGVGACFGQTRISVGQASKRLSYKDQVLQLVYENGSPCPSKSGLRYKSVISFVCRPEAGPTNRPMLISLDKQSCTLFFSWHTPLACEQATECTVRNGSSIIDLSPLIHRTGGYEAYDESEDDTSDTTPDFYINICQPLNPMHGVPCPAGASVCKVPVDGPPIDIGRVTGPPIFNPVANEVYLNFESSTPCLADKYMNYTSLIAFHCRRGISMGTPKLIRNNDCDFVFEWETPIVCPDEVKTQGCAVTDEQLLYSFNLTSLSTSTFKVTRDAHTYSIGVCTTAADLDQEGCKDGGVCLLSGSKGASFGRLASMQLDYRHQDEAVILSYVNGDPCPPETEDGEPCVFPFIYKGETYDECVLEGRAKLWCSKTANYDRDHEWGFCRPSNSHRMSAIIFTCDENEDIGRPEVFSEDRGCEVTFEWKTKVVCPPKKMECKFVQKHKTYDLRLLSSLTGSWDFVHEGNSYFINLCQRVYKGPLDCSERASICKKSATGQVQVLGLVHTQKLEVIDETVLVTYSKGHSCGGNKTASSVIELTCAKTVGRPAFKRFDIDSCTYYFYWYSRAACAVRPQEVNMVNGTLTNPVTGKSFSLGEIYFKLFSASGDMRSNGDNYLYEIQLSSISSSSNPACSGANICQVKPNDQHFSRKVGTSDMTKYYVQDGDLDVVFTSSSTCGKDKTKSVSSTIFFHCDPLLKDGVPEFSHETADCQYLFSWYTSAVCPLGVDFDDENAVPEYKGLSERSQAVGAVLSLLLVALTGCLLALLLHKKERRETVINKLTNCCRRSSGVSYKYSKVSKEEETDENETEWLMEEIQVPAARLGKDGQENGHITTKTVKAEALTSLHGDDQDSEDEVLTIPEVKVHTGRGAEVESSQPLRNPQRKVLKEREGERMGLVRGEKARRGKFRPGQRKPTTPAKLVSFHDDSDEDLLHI
Protocol: After cryo-sectioning, the tissue sections were stained with 50 nM fluorescent 13F11-13E8-ABD-AF647 and incubated overnight at 4° C. Subsequently, the sections were washed and stained with DAPI and mounted with mowiol mounting medium (Merck) and were imaged on a Zeiss LSM700 laser scanning confocal microscope with a 20× objective.

hIGF2R-ECD [3] = biological target: T1, hIGF2R-ECD; assay: Competition ELISA with 13F11-A647 on immobilized hIGF2R-ECD; format: binding; settings: for competition with 13F11 for binding to hIGF2R-ECD: 10 nM 13F11-A647, 250 nM unconjugated competitor
Protocol: With the term “compete” is meant that in a competition assay, such as for instance described in Example 5 and Example 8 of the present invention, the addition of a binding molecule induces a significant decrease in binding of a given VHH, i.e., the VHH to which the competing is determined. “Significant” in this respect is preferably a decrease of >5%, preferably >10% when 250 nM of a binding molecule is added to 10 nM of a fluorescence labelled VHH in an ELISA. […] The same test conditions and threshold apply to a binding molecule directed to PDGFRB when determining whether a binding molecule competes with a given VHH.
From the panel of 15 hIGF2R specific binders (FIG. 2), VHHs 13A8, 13A12, 13C11, 13E8, 13F11 and 13G10 were chosen for further characterization. A competition assay was performed to determine if the selected VHHs recognize distinct epitopes on hIGF2R. For this, a non-saturating amount (10 nM) of 13F11 conjugated to Alexa Fluor 647 (13F11-A647, conjugation method as described in example 9.2) was incubated with immobilized hIGF2R-ECD in the presence of unconjugated competitor (250 nM) (FIG. 10). Incubation of hIGF2R-ECD with 13F11-A647+13F11 was used as a positive control and incubation of hIGF2R-ECD with only 13F11-A647 was used to define the maximal fluorescence intensity.

Kd (hIGF2R-ECD [1]): 1 ± 0.61 nM
B1: 13F11-A647: VHH 13F11 with C-terminal free cysteine conjugated using maleimide chemistry to Alexa Fluor 647 (conjugate)
VHH: EVQLVESGGRLVQPGDSLRLSCAASGRTFSDNAMGWFRQAPGKERRFVAGISWAGGSTYYSDSVKGRFTISRDNAKNTVYLQMNSLKPEDTAVYYCAAGLRAWVQRMPKDYNYWGQGTQVTVSS

B2: 13F11-13E8-ABD: 13F11-13E8 re-engineered to include an albumin binding domain (ABD) as half-life extender (protein)
chain: EVQLVESGGRLVQPGDSLRLSCAASGRTFSDNAMGWFRQAPGKERRFVAGISWAGGSTYYSDSVKGRFTISRDNAKNTVYLQMNSLKPEDTAVYYCAAGLRAWVQRMPKDYNYWGQGTQVTVSSGGGGSGGGGSGGGGSEVQLVESGGGLVQAGGSLRLSCAASRSISPMGWYRQAPGKQRELVAIMPSSGPPIYADSVQGRFTISRDNAKNTVYLQMNSLKPEDTAVYYCNVGGGYWGQGTQVTVSS
modifications: left off: large carriers; small tags and cut ends
fraction of the infused dose still in circulation ([2]; one hour after dosing, estimated serum volume 10 mL): approximately 50%
Cmax ([2]; rat, i.v., approximately 3 mg/kg, read-out: peak serum level (Cmax)): > 1000 nM

binding to cells in liver sections of SHAM rats (IGF2R; 50 nM, overnight at 4° C.): not to cells in a liver from SHAM rats
staining of other tissues (kidney, spleen, heart, ileum, brain) (IGF2R; BDL and SHAM rats): no, or minor staining
B3: 13F11-13E8-ABD-AF647: 13F11-13E8-ABD conjugated to Alexa Fluor 647 (conjugate)
chain: EVQLVESGGRLVQPGDSLRLSCAASGRTFSDNAMGWFRQAPGKERRFVAGISWAGGSTYYSDSVKGRFTISRDNAKNTVYLQMNSLKPEDTAVYYCAAGLRAWVQRMPKDYNYWGQGTQVTVSSGGGGSGGGGSGGGGSEVQLVESGGGLVQAGGSLRLSCAASRSISPMGWYRQAPGKQRELVAIMPSSGPPIYADSVQGRFTISRDNAKNTVYLQMNSLKPEDTAVYYCNVGGGYWGQGTQVTVSS
modifications: left off: large carriers; small tags and cut ends
binding to cells in liver sections of BDL rats (IGF2R; 50 nM, overnight at 4° C.): clearly binds to cells in a liver from BDL rats

competition with 13F11 for binding to hIGF2R-ECD (hIGF2R-ECD [3]): compete
B4: 13C11: VHH targeting IGF2R, SEQ ID NO: 297 (protein, listed as Lama glama)
VHH: EVQLVESGGGLVQAGGSLRLSCAASGLTFSSYTMAWYRQAPGKEREVVAAISSGDSIYHEGSVQGRFIISRDNAKNTVYLQMNSLKAEDTAVYYCRANGPGTYWGQGTQVTVSS

competition with 13F11 for binding to hIGF2R-ECD (hIGF2R-ECD [3]): compete
B5: 13G10: VHH targeting IGF2R, SEQ ID NO: 305 (protein, listed as Lama glama)
VHH: EVQLVESGGGLVQAGGSLRLSCAASGLTFSSYTMAWYRQAPGKEREVVAAISSGDSIYHEDSVQGRFIISRDNAKNTVYLQMNSLKAEDTAVYYCRANGPGTYWGQGTQVTVSS

decrease in fluorescence intensity of labelled 13F11 (hIGF2R-ECD [3]; 10 nM labelled 13F11, 250 nM unlabelled competitor): less than 5%
B6: 13E8: VHH targeting IGF2R, SEQ ID NO: 249 (protein, listed as Lama glama)
VHH: EVQLVESGGGLVQAGGSLRLSCAASRSISPMGWYRQAPGKQRELVAIMPSSGPPIYADSVQGRFTISRDNAKNTVYLQMNSLKPEDTAVYYCNVGGGYWGQGTQVTVSS
competition with 13F11 for binding to hIGF2R-ECD (hIGF2R-ECD [3]): did not compete; also recorded: do not compete

competition with 13F11 for binding to hIGF2R-ECD (hIGF2R-ECD [3]): compete
B7: 13A12: VHH targeting IGF2R, SEQ ID NO: 289 (protein, listed as Lama glama)
VHH: EVQLVESGGGLVQAGGSLRLSCAASGIIFGANTVGWYRQVPGKERDVVASITSGDSTYYGDSVRGRFTISRDNAKNTMYLQMNSLKPEDTAIYYCRARTTDGSYWGQGTQVTVS

B8: 13A8: VHH targeting IGF2R, SEQ ID NO: 257 (protein, listed as Lama glama)
VHH: EVQLVESGGGLVPAGGSLRLSCAASGRTFSNYAMGWFRQAPGKERKFVATISWSGGVTYYADSVKGRFTISRDNAKNTVYLLMNSLKPEDTAVYYCAAKRDSSSYDHRRYDYWGQGTQVTVSS
competition with 13F11 for binding to hIGF2R-ECD (hIGF2R-ECD [3]): complete competition; also recorded: compete
